Laboratory results as given in patent US20190031764A1 (Janssen / Centocor, published 2019).

T1: Biotinylated human TIM3-Fc fusion from R&D systems (human, UniProt Q8TDQ0 22-200, biotinylated (site not stated))
T1 construct: Bought reagent; also called CD366; not shown: Fc part of the bought fusion
T1 sequence (looked up): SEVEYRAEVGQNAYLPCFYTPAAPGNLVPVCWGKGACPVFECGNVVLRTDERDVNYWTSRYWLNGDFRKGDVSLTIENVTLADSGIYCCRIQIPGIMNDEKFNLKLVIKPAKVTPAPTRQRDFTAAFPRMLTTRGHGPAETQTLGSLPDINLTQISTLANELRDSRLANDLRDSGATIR


Tests used:
[1] = biological target: T1, Biotinylated human TIM3-Fc fusion from …; assay: Ag Binding column; TIM3-Fc ELISA
human PD1 antigen = biological target: T2, human PD1 antigen (human, UniProt Q15116 25-167, limits assumed); assay: Ag Binding column; PD1 SPR
T2 construct: Injected as analyte (100 nM-0.4 nM) in the ProteOn SPR assay; construct not described; also called CD279
T2 sequence (Q15116 25-167 limits assumed): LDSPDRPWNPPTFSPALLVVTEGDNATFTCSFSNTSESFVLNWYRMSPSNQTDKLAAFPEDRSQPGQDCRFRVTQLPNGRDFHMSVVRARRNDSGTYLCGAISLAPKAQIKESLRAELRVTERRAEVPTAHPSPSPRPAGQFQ

Row | Binder | binding result [1] | binding result (human PD1 antigen)
1 | A88D variant of TIMB337 (antibody, V domains shown, Kabat position 84; also called TIM3 A88D variant; TM3H24 A88D) VH: not shown VL: EIVLTQSPATLSLSPGERATLSCRASQSVNDYLAWYQQKPGQAPRLLIYDASNRATGIPARFSGSGSGTDFTLTISSLEPEDFAVYYCQQGGHAPITFGQGTKVEIK | binds | –
2 | S75D variant of TIMB337 (antibody, V domains shown, Kabat position 74; also called TIM3 S75D variant; TM3H24 S75D) VH: not shown VL: EIVLTQSPATLSLSPGERATLSCRASQSVNDYLAWYQQKPGQAPRLLIYDASNRATGIPARFSGSGSGTDFTLTISSLEPEDFAVYYCQQGGHAPITFGQGTKVEIK | binds | –
3 | S88D variant of PD1B244 (antibody, V domains shown, Kabat position 84; also called PD1 S88D variant; PD1H170 S88D) VH: QVQLVQSGAEVKKPGSSVKVSCKASGGTFSSYAISWVRQAPGQGLEWMGGIIPIFDTANYAQKFQGRVTITADESTSTAYMELSSLRDEDTAVYYCARPGLAAAYDTGSLDYWGQGTLVTVSS VL: EIVLTQSPATLSLSPGERATLSCRASQSVRSYLAWYQQKPGQAPRLLIYDASNRATGIPARFSGSGSGTDFTLTISSLEPEDFAVYYCQQRNYWPLTFGQGTKVEIK | – | binds

The remaining lines, values ahead:

Row | binding result [1] | binding result (human PD1 antigen) | Binder
4 | binds | – | N84D variant of TIMB337 (antibody, V domains shown, Kabat position 82a; also called TIM3 N84D variant; TM3H24 N84D) VH: not shown VL: EIVLTQSPATLSLSPGERATLSCRASQSVNDYLAWYQQKPGQAPRLLIYDASNRATGIPARFSGSGSGTDFTLTISSLEPEDFAVYYCQQGGHAPITFGQGTKVEIK
5 | – | binds | S84D variant of PD1B244 (antibody, V domains shown, Kabat position 82a; also called PD1 S84D variant; PD1H170 S84D) VH: QVQLVQSGAEVKKPGSSVKVSCKASGGTFSSYAISWVRQAPGQGLEWMGGIIPIFDTANYAQKFQGRVTITADESTSTAYMELDSLRSEDTAVYYCARPGLAAAYDTGSLDYWGQGTLVTVSS VL: EIVLTQSPATLSLSPGERATLSCRASQSVRSYLAWYQQKPGQAPRLLIYDASNRATGIPARFSGSGSGTDFTLTISSLEPEDFAVYYCQQRNYWPLTFGQGTKVEIK
6 | – | binds | S75D variant of PD1B244 (antibody, V domains shown, Kabat position 74; also called PD1 S75D variant; PD1H170 S75D) VH: QVQLVQSGAEVKKPGSSVKVSCKASGGTFSSYAISWVRQAPGQGLEWMGGIIPIFDTANYAQKFQGRVTITADEDTSTAYMELSSLRSEDTAVYYCARPGLAAAYDTGSLDYWGQGTLVTVSS VL: EIVLTQSPATLSLSPGERATLSCRASQSVRSYLAWYQQKPGQAPRLLIYDASNRATGIPARFSGSGSGTDFTLTISSLEPEDFAVYYCQQRNYWPLTFGQGTKVEIK
